{
  "source": "the nanobody polyreactivity screen of Harvey et al. (2022)",
  "data": [
    {"experiment": "yeast display, Sf9 membrane polyspecificity reagent, FACS + sequencing; frameworks hold sequencing errors", "in_short": "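Galactose-induced (36–48 hours) yeast carrying a synthetic nanobody display library were exposed to 10% biotinylated, detergent-solubilized Sf9 membrane reagent at 4 °C for 1 hour. FACS followed streptavidin microbead enrichment, using low and high (top ~1%) gates for expression (anti-HA) and reagent binding (streptavidin). Colony PCR, MiSeq 2 × 250 sequencing and CDR-length filtering followed. Labels for polyreactivity reflect the gate of origin.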", "values": [
      {"sequence": "QVQLVESGGGLVQAGGSLRLSCAASGSTFNRYAMGWYRQAPGKERELVAAISWNGGSTYYADSVKGRFTSSRDNAKNTVYLQMNSLKPEDTAVYYCATLVRKYDGFNYWGQGTQVTVSS", "polyreactivity (PSR sort gate)": "high polyreactivity"},
      {"sequence": "QVQLVESGGGLVQAGGSLRLSCAASGSTFNRYAMGWYRQAPGKERELVASISWGGGRTYYADSVKGRFTISRDNAKNTVYLQMNSLKPEDTAVYYCATDRYYRHYEVDYWGQGTQVTVSS", "polyreactivity (PSR sort gate)": "low polyreactivity"},
      {"sequence": "QVQLVESGGGLVQAGGSLRLSCAASGSTFNSNAMGWYRQAPGKERELVASITWTDVSTYYADSVKGRFTISRDNAKNTVYLQMNSLKPEDTAVYYCAAVTGLSSNDGYDYWGQGTQVTVSS", "polyreactivity (PSR sort gate)": "low polyreactivity"},
      {"sequence": "QVQLVESGGGLVQAGGSLRLSCAASGSTFNWYAMGWYRQAPGKERELVAAISSGGNTNYADSVKGRFTISRDNAKNTVYLQMNSLKPEDTAVYYCAARYPYKHLAWSTSKRFGYWGQGTQVTVSS", "polyreactivity (PSR sort gate)": "low polyreactivity"},
      {"sequence": "QVQLVESGGGLVQAGGSLRLSCAASGSTFNYYAMGGNRQAPGKESELVAAISTRGSSTSYADSVKGRFTISRDNAKNTVYLQMNSLKPEDTAVYYCTAPRWSPRRYGYWGQGTQVTVSS", "polyreactivity (PSR sort gate)": "high polyreactivity"},
      {"sequence": "QVQLVESGGGLVQAGGSLRLSCAASGSTFPFNAMGWYRQAPGKERELVAAITTSAGSTYYADSVKGRFTISRDNAKKTVYLQMNSLKPEDTAVYYCAARYVPPWGRRYYYWGQGTQVTVSS", "polyreactivity (PSR sort gate)": "high polyreactivity"},
      {"sequence": "QVQLVESGGGLVQAGGSLRLSCAASGSTFPFNAMGWYRQAPGKERELVAVITYSGGSTYYADSVKGRFTISRDNAKNTVYLHMNSLKPVVTAVYYCAADVYYWGSTYYYWGLGTQVTVSS", "polyreactivity (PSR sort gate)": "high polyreactivity"},
      {"sequence": "QVQLVESGGGLVQAGGSLRLSCAASGSTFPFYVMGWYRQAPGKERELVASIRGTGGNTYYADSVKGRFTISRDNAKNTVYLQMNSLKPEDTAVYYCNAVYRLSHYDLDYWGQGTQVTVSS", "polyreactivity (PSR sort gate)": "high polyreactivity"},
      {"sequence": "QVQLVESGGGLVQAGGSLRLSCAASGSTFPGNAMGWYRQAPGKERELVAAINWSGDSTYYADSVKGRFTISRDNAKNTVYLQMNSLKPEDTAVYYCAAYGVGYYYWGQGTQVTVSS", "polyreactivity (PSR sort gate)": "low polyreactivity"},
      {"sequence": "QVQLVESGGGLVQAGGSLRLSCAASGSTFPGNAMGWYRQAPGKERELVAAITSTGTTYYADSVKGRFTISRDNAKNTVYLQMNSLKPEDTAVYYCNADPSPDPSTFDYWGQGTQVTVSS", "polyreactivity (PSR sort gate)": "low polyreactivity"},
      {"sequence": "QVQLVESGGGLVQAGGSLRLSCAASGSTFPGNAMGWYRQAPGKERELVASIRRSGGSTYYADSVKGRFTISRDNAKNTVYLQMNSLKPEDTAVYYCAKRTFLVSGPRSYGWYGVYYWGQGTQVTVSS", "polyreactivity (PSR sort gate)": "high polyreactivity"},
      {"sequence": "QVQLVESGGGLVQAGGSLRLSCAASGSTFPGYAMGWYRQAPGKERELVAAITAGGGSTYYADSVKGRFTISRDNAKNSVYLLMKSLKPEDTAVYYCAKRYSYYGWRRYDYWGQGTQVTVSS", "polyreactivity (PSR sort gate)": "high polyreactivity"},
      {"sequence": "QVQLVESGGGLVQAGGSLRLSCAASGSTFPGYAMGWYRQAPGKERELVAAITTSGGSTYYADSVKGRFTISRDNAKNTVYLQMNSLKPEDTAVYYCAADYWYYLDAGYYWGQGTQVTVSS", "polyreactivity (PSR sort gate)": "low polyreactivity"},
      {"sequence": "QVQLVESGGGLVQAGGSLRLSCAASGSTFPGYAMGWYRQAPGKERELVASIYTGGSTYYADSVKGRFTISRDNAKKTVYLQMHSLKPEDSAVYYCAADSYNVSSLMYYWGQGTQVTVSS", "polyreactivity (PSR sort gate)": "low polyreactivity"},
      {"sequence": "QVQLVESGGGLVQAGGSLRLSCAASGSTFPINAMGWYRQAPGKERELVACISSGGSTDYADSVKGRFTISRVNAKNTVYLQMNSLKAEHTAVYYWAAVRGPSLVTKYPHDYWGQGTQVTVSS", "polyreactivity (PSR sort gate)": "low polyreactivity"},
      {"sequence": "QVQLVESGGGLVQAGGSLRLSCAASGSTFPINTMGWYRQAPGKERELVAAITHSGGRTYYADSVKGRFTISRVNAKNTVYLQMNSLKPEDTAVYYCNAVRYYAVRVSDGDYDYWGQGTQVTVSS", "polyreactivity (PSR sort gate)": "low polyreactivity"},
      {"sequence": "QVQLVESGGGLVQAGGSLRLSCAASGSTFPKYAMGWYRQAPGKERELVAAISWYGGRTYYADSVKGRFTISRDNAKHTVYLQMNSLKPEDTAVYYCAASIPGTRSDGYWGQGTQVTVSS", "polyreactivity (PSR sort gate)": "low polyreactivity"},
      {"sequence": "QVQLVESGGGLVQAGGSLRLSCAASGSTFPKYAMGWYRQAPGKERELVALITSSTGTTYYADSVKGRFTISRDNAKNTVYLQMNSLKPEDTAVYYCNARVRYREWGLYYWGQGTQVTVSS", "polyreactivity (PSR sort gate)": "high polyreactivity"},
      {"sequence": "QVQLVESGGGLVQAGGSLRLSCAASGSTFPKYAMGWYRQAPGKERELVASISVTTGSTYYADSVKGRFTISRDNAKNTVYLQMNSLKPEDTAVYYCAARRGWGDDYWGQGTQVTVSS", "polyreactivity (PSR sort gate)": "high polyreactivity"},
      {"sequence": "QVQLVESGGGLVQAGGSLRLSCAASGSTFPLYAMGWYRQAPGKDRELVAAITWSGANTYYADSVKGRFTISRDNAKNTVSLQMNSLKPEDTAVYYCAAGSYAGFAVIGYYYWGQGTQVTVSS", "polyreactivity (PSR sort gate)": "low polyreactivity"},
      {"sequence": "QVQLVESGGGLVQAGGSLRLSCAASGSTFPPNAMGWYRQAPGKERELVAVISNGGSNTRYADSVKGRFTISRDIAKNTVYLQMNSLKPEDTAVYYCAADYEYSGYGYWGQGTQVTVSS", "polyreactivity (PSR sort gate)": "high polyreactivity"},
      {"sequence": "QVQLVESGGGLVQAGGSLRLSCAASGSTFPPNAMGWYRQAPGKERELVAVISYSDGSTYYADSVKGRFTISRDNAKNTVYLQMNSLKPEDTAVYYCAAYSGYGGVSMYYWGQGTQVTGSS", "polyreactivity (PSR sort gate)": "low polyreactivity"},
      {"sequence": "QVQLVESGGGLVQAGGSLRLSCAASGSTFPPNGMGWYRQAPGKERELVAAIRWRGGSTYYADSVKGRFTISRDNAKNTVYLQMNSLKPEDTAVYYCAKYVTYSRPTNSPSGKHVYWGQGTQVTVSS", "polyreactivity (PSR sort gate)": "low polyreactivity"},
      {"sequence": "QVQLVESGGGLVQAGGSLRLSCAASGSTFPPYAMGRYRQAPGKERELVAAIDWSDGTTYYADSVKGRFTISRDYAKNTVYLQMNSLKPEDTAVYYCAGSLSQSEYDYWGQGTQVTVSS", "polyreactivity (PSR sort gate)": "low polyreactivity"},
      {"sequence": "QVQLVESGGGLVQAGGSLRLSCAASGSTFPPYAMGWYRQAPGKEREFVARISWTGGSTYYADSVKGRFTISRDNAKNTVYLQMNCLKPEDTAVYYCAAKSYWGQGTQVTVSS", "polyreactivity (PSR sort gate)": "high polyreactivity"},
      {"sequence": "QVQLVESGGGLVQAGGSLRLSCAASGSTFPPYAMGWYRQAPGKERELVADITRRGASTYYADSVKGRFTISRDNAKNTVYLQMNSLKPEDTAVYYCNAGRSRRYRIGRYYYWGQGTQVTVSS", "polyreactivity (PSR sort gate)": "high polyreactivity"},
      {"sequence": "QVQLVESGGGLVQAGGSLRLSCAASGSTFPQNVMGWYRQAPGKERELVAAITRSAGSTYYADSVKGRFTISRDNAKNTVYLQMNSLKPEDTAVYYCNTGRQRGDGWGQGTQVTVSS", "polyreactivity (PSR sort gate)": "high polyreactivity"},
      {"sequence": "QVQLVESGGGLVQAGGSLRLSCAASGSTFPQYAMGWYRQAPGKERELVAAISFSGGSTYYADSVKGRFTISRDNAKNTVYLQMNSLKPEDTAVYYCAAELGLAQYYYWGQGTQVTVSS", "polyreactivity (PSR sort gate)": "low polyreactivity"},
      {"sequence": "QVQLVESGGGLVQAGGSLRLSCAASGSTFPRNAMVWYIQAPGKERELVAAISRRGGSTYYADSVKGLFTISRDNAKNTVYLQMNSLKPEDTAVYYCAAATRYAIYGRYSRYDYWGQGTQVTVSS", "polyreactivity (PSR sort gate)": "high polyreactivity"},
      {"sequence": "QVQLVESGGGLVQAGGSLRLSCAASGSTFPRYAMGWYRQAPGKERELVAAMSSSGGRTYYADSVKGRFTISRDNAKNTVYLQMNSLKPEDTAVYYCAARAFKTIIYDYWGQGTQVTVSS", "polyreactivity (PSR sort gate)": "high polyreactivity"},
      {"sequence": "QVQLVESGGGLVQAGGSLRLSCAASGSTFPSNAMGWYRQAPGKERELVAAIRGRGGSTYYADSVKGRFTISRDNAKNTVYLQMNSLKPEDTAVYYCAKKVRSYVRWEYDYWGQGTQVTVSS", "polyreactivity (PSR sort gate)": "low polyreactivity"},
      {"sequence": "QVQLVESGGGLVQAGGSLRLSCAASGSTFPSNVMGWYRQAPGKERELVAAITWSGGRTYYADSVKGRFTISRDNAKNTVYLQMNSLKPEDTAVYYCAVRSSYVRYDYWGKGTQVTVSS", "polyreactivity (PSR sort gate)": "high polyreactivity"}
    ]}
  ]
}
